Publication PMC7385628, “Molecular determinants for dsDNA translocation by the transcription-repair coupling and evolvability factor Mfd”

Key:
[1] = test system: Mfd D7-AAA;H842A (Escherichia coli); experiment: fluorescence anisotropy; details: 10 nM labeled DNA, 2 mM nucleotide (ADP-AlFx from ADP, 10 mM NaF, 2 mM AlCl3), buffer, pH and temperature not in the material. …
Mfd wild type [2] = target: T1, Mfd wild type (Escherichia coli, UniProt P30958 1-1148); experiment: fluorescence anisotropy; details: 10 nM labeled DNA, 2 mM nucleotide (ADP-AlFx from ADP, 10 mM NaF, 2 mM AlCl3), buffer, pH and temperature not in the material. …
Mfd wild type [3] = target: T1, Mfd wild type; experiment: cryo-EM structure (5.5 A); 2 mM ADP, 10 mM NaF, 1 mM AlCl3, Mg2+; Fluorescence anisotropy, 10 nM labeled DNA, 2 mM nucleotide (ADP-AlFx from ADP, 10 mM NaF, 2 mM AlCl3); buffer, pH and temperature not in the material. Cryo-EM: Mfd in 20 mM Tris-HCl pH 8, 100 mM NaCl, 20 mM MgCl2, 2 mM TCEP; details: protein: recombinant; tags: N-terminal His tag, cleaved with PreScission; blunt

T1 sequence (P30958 whole entry): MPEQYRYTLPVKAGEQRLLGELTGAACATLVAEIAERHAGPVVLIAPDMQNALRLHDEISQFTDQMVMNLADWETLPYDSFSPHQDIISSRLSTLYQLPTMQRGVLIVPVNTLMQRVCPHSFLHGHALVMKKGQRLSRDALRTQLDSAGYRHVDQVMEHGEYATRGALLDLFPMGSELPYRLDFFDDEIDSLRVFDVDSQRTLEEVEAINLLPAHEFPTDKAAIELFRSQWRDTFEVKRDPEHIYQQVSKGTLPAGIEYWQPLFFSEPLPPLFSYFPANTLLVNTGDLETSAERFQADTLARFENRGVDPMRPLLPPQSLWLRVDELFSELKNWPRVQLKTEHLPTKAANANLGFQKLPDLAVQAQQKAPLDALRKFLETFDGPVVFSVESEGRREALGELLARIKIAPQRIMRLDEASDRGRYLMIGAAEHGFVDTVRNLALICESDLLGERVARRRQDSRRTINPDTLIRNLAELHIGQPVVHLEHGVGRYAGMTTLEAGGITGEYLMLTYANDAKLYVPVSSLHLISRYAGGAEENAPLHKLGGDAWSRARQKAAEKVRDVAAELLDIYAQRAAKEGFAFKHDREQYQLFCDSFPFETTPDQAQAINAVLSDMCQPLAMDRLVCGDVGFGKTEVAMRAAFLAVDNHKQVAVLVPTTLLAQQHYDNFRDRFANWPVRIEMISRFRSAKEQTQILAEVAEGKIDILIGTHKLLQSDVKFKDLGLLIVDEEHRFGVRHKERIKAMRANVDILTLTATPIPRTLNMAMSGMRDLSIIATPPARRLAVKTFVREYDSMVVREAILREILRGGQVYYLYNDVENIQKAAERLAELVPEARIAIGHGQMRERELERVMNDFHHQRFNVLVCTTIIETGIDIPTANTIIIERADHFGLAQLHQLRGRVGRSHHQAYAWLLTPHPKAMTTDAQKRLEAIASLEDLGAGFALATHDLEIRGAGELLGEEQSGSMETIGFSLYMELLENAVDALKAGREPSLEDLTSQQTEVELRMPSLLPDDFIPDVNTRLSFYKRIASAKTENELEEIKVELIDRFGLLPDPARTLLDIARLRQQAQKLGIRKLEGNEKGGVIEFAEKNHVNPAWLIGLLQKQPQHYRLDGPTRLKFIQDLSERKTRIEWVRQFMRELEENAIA

Molecule	Kd [1] [nM]	Kd ([1]; 2 mM ATPgS) [nM]	Kd (Mfd wild type [2]; 2 mM ADP-AlFx) [nM]	Kd (Mfd wild type [2]; 2 mM ATPgS) [nM]	binding result (Mfd wild type [3])
HEX-labeled 40mer dsDNA	127	927	24	151	
21mer dsDNA (cryo-EM) (dsDNA) DNA 1: ATAGGATACTTACAGCCATCG DNA 2: CGATGGCTGTAAGTATCCTAT					binds
